From patent US20210388087A1 (Chugai, published 2021)
Where a chain is given by its changes, count along the chain named.

B1: H183/L072 VL A89F (antibody, name in Kabat numbering, V domains shown)
VH: QVQLVESGGGLVQPGRSLRLSCAASGFTFSNAWMHWVRQAPGKGLEWVAQIKDKGNAYAAYYAPSVKGRFTISRDDSKNSIYLQMNSLKTEDTAVYYCHYVHYASASTVLPAFGVDAWGQGTTVTVSS
VL: DIVMTQSPLSLPVTPGEPASISCQASQELVHMNRNTYLHWYQQKPGQAPRLLIYKVSNRFPGVPDRFSGSGSGTDFTLKISRVEAEDVGVYYCFQGTSVPFTFGQGTKLEIK
notes: Dual-Ig
B2: H183/L072 VL A89L (antibody, name in Kabat numbering, V domains shown)
VH: B1 VH
VL: B1 VL with F94L
notes: Dual-Ig
B3: H183/L072 VL A89M (antibody, name in Kabat numbering, V domains shown)
VH: B1 VH
VL: B1 VL with F94M
notes: Dual-Ig
B4: H183/L072 VL E27aF (antibody, name in Kabat numbering, V domains shown)
VH: B1 VH
VL: B1 VL with E28F, F94A
notes: Dual-Ig
B5: H183/L072 VL A89P (antibody, name in Kabat numbering, V domains shown)
VH: B1 VH
VL: B1 VL with F94P
notes: Dual-Ig
B6: H183/L072 VL A89Q (antibody, name in Kabat numbering, V domains shown)
VH: B1 VH
VL: B1 VL with F94Q
notes: Dual-Ig
B7: H183/L072 VL A89H (antibody, name in Kabat numbering, V domains shown)
VH: B1 VH
VL: B1 VL with F94H
notes: Dual-Ig
B8: H183/L072 VL A89K (antibody, name in Kabat numbering, V domains shown)
VH: B1 VH
VL: B1 VL with F94K
notes: Dual-Ig
B9: H183/L072 VL A89N (antibody, name in Kabat numbering, V domains shown)
VH: B1 VH
VL: B1 VL with F94N
notes: Dual-Ig
B10: H183/L072 VL A89R (antibody, name in Kabat numbering, V domains shown)
VH: B1 VH
VL: B1 VL with F94R
notes: Dual-Ig
B11: H183/L072 VL A89I (antibody, name in Kabat numbering, V domains shown)
VH: B1 VH
VL: B1 VL with F94I
notes: Dual-Ig
B12: H183/L072 VL A89G (antibody, name in Kabat numbering, V domains shown)
VH: B1 VH
VL: B1 VL with F94G
notes: Dual-Ig
B13: H183/L072 VL A89S (antibody, name in Kabat numbering, V domains shown)
VH: B1 VH
VL: B1 VL with F94S
notes: Dual-Ig
B14: H183/L072 VL A89T (antibody, name in Kabat numbering, V domains shown)
VH: B1 VH
VL: B1 VL with F94T
notes: Dual-Ig
B15: H183/L072 VL A89V (antibody, name in Kabat numbering, V domains shown)
VH: B1 VH
VL: B1 VL with F94V
notes: Dual-Ig
B16: H183/L072 VL A89W (antibody, name in Kabat numbering, V domains shown)
VH: B1 VH
VL: B1 VL with F94W
notes: Dual-Ig
B17: H183/L072 VL E27aD (antibody, name in Kabat numbering, V domains shown)
VH: B1 VH
VL: B1 VL with E28D, F94A
notes: Dual-Ig
B18: H183/L072 VL E27aA (antibody, name in Kabat numbering, V domains shown)
VH: B1 VH
VL: B1 VL with E28A, F94A
notes: Dual-Ig

target: T1, Human CD137 ECD (human); test: Biacore SPR, vs parent H183/L072
T1 construct: entry includes C-terminal His-tag and biotin acceptor peptide; also called human CD137 extracellular domain; 4-1BB
T1 sequence (chain, as listed by the source limits assumed): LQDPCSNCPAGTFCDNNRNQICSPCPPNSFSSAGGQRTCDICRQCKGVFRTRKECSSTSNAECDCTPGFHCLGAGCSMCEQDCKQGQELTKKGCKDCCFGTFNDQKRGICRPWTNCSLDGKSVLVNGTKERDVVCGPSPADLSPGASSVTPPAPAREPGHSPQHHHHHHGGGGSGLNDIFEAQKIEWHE

fold change of affinity	Binder
0 fold	B1
0 fold	B2
0 fold	B3
1.1 fold	B4
0 fold	B5
0 fold	B6
0 fold	B7
0 fold	B8
0 fold	B9
0 fold	B10
0 fold	B11
0.5 fold	B12
0 fold	B13
0 fold	B14
0 fold	B15
0 fold	B16
1.1 fold	B17
0.9 fold	B18
